A value given as a limit tells only on which side of the number the result lay.

The test concerns the target chimeric H5 Env: Env_(HXB2) with the V3 loop of Env_(SF162) (HIV-1 strain HXB2 | HIV-1 strain SF162) (UniProt P04578).

For “Human soluble CD4-183 (sCD4-183) two-domain protein (domain or fragment)”, the inhibition by sCD4 of the infectivity of HIV-1 pseudotyped with Env (titration, Fig 3A); loss of potency against H4 Env is more than 50 fold and the sCD4-induced gp120 shedding from Env-expressing HEK293T cells (Fig 3B); shift of the sCD4 dependence against H4 Env is more than 10 fold.
